Publication PMC9519967 (2022)

How the values were obtained:
Experiment in all cases: MST
[1] = biological target: Sos-C-Tail-8 truncated peptide (without GST) (UniProt Q07889)
[2] = biological target: Sos-C-Tail-5 truncated peptide (without GST) (UniProt Q07889)
[3] = biological target: Sos-C-Tail-6 truncated peptide (without GST) (UniProt Q07889)

Kd [1]: 71.1 µM
Kd [2]: 2.36 µM
Kd [3]: 3.41 µM
B1: His-tagged Grb3-3 N-terminal SH3 and SH2 domain (NSH3SH2Δ40) (domain or fragment)
chain: MEAIAKYDFKATADDELSFKRGDILKVLNEECDQNWYKAELNGKDGFIPKNYIEMKPHPFGNDVQHFKVLRDGAGKYFLWVVKFNSLNELVDYHRSTSVSRNQQIFLRDIE
modifications: Atto488 NHS ester label, 1:1 protein:dye
